From US9688764B2, “Methods of treating breast cancer by administering anti-human prolactin receptor (PRLR) antibodies” (REGENERON PHARMACEUTICALS, INC., priority 2013, dated 2017)
Changes are numbered by the printed parent chain.

T1: HEK293/mPRLR (Mus musculus, UniProt Q08501)
T1 construct: HA; expressed in transfected cells; host or cells: HEK293
T1 sequence (Q08501 20-608): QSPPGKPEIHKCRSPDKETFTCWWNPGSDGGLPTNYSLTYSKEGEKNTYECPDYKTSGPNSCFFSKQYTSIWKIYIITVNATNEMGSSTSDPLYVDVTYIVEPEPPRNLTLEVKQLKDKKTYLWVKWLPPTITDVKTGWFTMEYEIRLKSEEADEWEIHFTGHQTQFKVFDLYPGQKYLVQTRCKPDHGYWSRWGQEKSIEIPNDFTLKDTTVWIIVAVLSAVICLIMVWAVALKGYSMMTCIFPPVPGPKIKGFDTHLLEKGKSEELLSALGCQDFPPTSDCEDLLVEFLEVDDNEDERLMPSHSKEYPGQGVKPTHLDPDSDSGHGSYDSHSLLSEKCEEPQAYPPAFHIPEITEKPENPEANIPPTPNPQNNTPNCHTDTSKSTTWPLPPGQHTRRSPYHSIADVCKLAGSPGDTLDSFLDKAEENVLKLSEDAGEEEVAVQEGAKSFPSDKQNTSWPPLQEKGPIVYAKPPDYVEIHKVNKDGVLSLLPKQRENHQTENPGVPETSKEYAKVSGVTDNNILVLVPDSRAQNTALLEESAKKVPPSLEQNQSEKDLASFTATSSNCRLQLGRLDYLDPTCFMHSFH

T2: T47D (native PRLR expressing cell line) (Homo sapiens, UniProt P16471)
T2 construct: a native PRLR expressing cell line (T47D); endogenous in cells; host or cells: T47D
T2 sequence (P16471 25-622): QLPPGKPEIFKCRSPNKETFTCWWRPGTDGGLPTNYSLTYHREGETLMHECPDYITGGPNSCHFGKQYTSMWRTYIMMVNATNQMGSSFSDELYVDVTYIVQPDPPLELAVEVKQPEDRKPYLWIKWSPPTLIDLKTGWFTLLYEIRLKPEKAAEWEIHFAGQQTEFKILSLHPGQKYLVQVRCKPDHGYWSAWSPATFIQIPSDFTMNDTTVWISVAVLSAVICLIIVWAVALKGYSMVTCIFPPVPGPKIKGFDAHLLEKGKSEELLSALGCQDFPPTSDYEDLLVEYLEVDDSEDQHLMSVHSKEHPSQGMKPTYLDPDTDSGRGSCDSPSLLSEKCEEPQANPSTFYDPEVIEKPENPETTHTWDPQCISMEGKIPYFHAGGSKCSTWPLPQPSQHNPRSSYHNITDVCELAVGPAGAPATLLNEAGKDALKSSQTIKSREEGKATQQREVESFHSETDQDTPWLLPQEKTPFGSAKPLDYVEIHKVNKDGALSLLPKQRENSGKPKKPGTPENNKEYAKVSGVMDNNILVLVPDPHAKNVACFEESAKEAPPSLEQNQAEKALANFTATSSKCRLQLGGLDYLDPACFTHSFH

T3: HEK293/hPRLR (Homo sapiens, UniProt P16471)
T3 construct: HA; expressed in transfected cells; host or cells: HEK293
T3 sequence (P16471 25-622): T2 sequence (P16471 25-622)

B1: H1H6975N: human IgG1 Fc form of H2M6975N; anti-PRLR; HCVR/LCVR SEQ ID NOs 370/378 (antibody, V domains shown)
VH: EVHLVESGGGLVQPGGSLRLSCAASGFTFSSYEMNWVRQTPGKGLEWISHISSRSVIIYYADSVKGRFTISRDNAKNSLFLQMNSLRAEDTAVYFCAGITIFGIPEYWGQGTLVTVSS
VL: EIVLTQSPATLSLSPGERATLSCRASQSVSSYFAWYQQKPGQAPRLLIYDASSRATGIPTRFSGSGSGTDFTLTISSLEPEDFAVYYCQQRSSWPITFGQGTRLEIK
modifications: human IgG1 Fc
B2: H1H6958N2: human IgG1 Fc form of H2M6958N2; anti-PRLR, receptor blocking; HCVR/LCVR SEQ ID NOs 290/298 (antibody, V domains shown)
VH: QVQLVESGGGVVQPGRSLRLSCGASGFTFRNYGMQWVRQGPGKGLEWVTLISFDGNDKYYADSVKGRFTISRDNSKNTLFLQMNSLRTEDTAVYYCARGGDFDYWGQGTLVTVSS
VL: DIQMTQSPSSLSASVGDRVTITCRASQDIRKDLGWYQQKPGKAPKRLIYAASSLHSGVPSRFSGSGSGTEFTLTISSLQPEDFATYYCLQHNSYPMYTFGQGTKLEIK
modifications: human IgG1 Fc
B3: H1H6967N: human IgG1 Fc form of H2M6967N; anti-PRLR; HCVR/LCVR SEQ ID NOs 354/362 (antibody, V domains shown)
VH: EVQLVESGGDLVHPGRSLRLSCAASGFPFDEYAMHWVRQVPGKGLEWVSGISWSNNNIGYADSVKGRFTISRDNAKNSLYLQMNSLRPEDTAFYYCAKSGIFDSWGQGTLVTVSS
VL: EIVMTQSPATLSVSPGERATLSCRASQSVSRDLAWYQQKPGQAPRLLIHGASTRATGIPARFSGSGSGAEFTLIISSLQSEDFAVYYCQQYNNWPLTFGGGTKVEIK
modifications: human IgG1 Fc
B4: H1H6960N: human IgG1 Fc form of H2M6960N; anti-PRLR; HCVR/LCVR SEQ ID NOs 322/330 (antibody, V domains shown)
VH: EVQLVESGGGLVKPGGSLRLSCAASGITFSSYSMNWVRQAPGKGLEWVSSISTRSSLIHYADSVKGRFTISRDNAKNSLYLQMNSLRDEDTAVYYCARWDAAAAFDYWGQGTLVIVSS
VL: DIQLTQSPSFLSASVGDRVTITCWASQGISSYLAWYQQKPGKAPKLLIYVASTLQSGVPSRFSGSGSGTEFTLTISSLQPEDFATYFCQQLNSYPLTFGGGTKVEIK
modifications: human IgG1 Fc
B5: H1H6959N2: human IgG1 Fc form of H2M6959N2; anti-PRLR; HCVR/LCVR SEQ ID NOs 306/314 (antibody, V domains shown)
VH: EVQLVESGGGLVQPGRSLRLSCAASGFTFDDYAMHWVRQAPGKGLEWVSGISWHSGIIGYADSVKGRFTISRDNAKNSLYLQMNSLRTEDAALYYCAKIGSYFYFDSWGQGTLVTVSS
VL: EIVLTQSPGTLSLSPGERATLSCRASQSVSSNYLAWYQQKPGQAPRLLIYGASSRATGIPDRFSGSGSGTDFTLTISRLEPEDFAVYYCQQFGSSGYTFGQGTNLEIK
modifications: human IgG1 Fc
B6: H1H6966N: human IgG1 Fc form of H2M6966N; anti-PRLR; HCVR/LCVR SEQ ID NOs 338/346 (antibody, V domains shown)
VH: QVQLVQSGAEVQKPGASVKVSCKVSGYTLTALSIHWVRQAPGKGLEWMGNFDPGDGETIHAQKFQGRVTMTGDTSTDTAYMELSSLRSEDTAVYYCVGVTFDYWGQGTLVTVSS
VL: B3 VL with S30A, R31S, D32N, I48L, H49Y, A69T, I74T, V85L, Q90H
modifications: human IgG1 Fc

What follows are molecules tested on HEK293/hPRLR/STAT5-Luc cells (human PRLR) (assay: STAT5-Luc luciferase reporter assay, blocking of PRL-mediated receptor activation). Settings: 5 nM constant PRL, 6 hr at 37° C.
Assay type: cell-based
Description: The ability of anti-PRLR antibodies to block prolactin (PRL)-mediated receptor activation was examined in a luciferase-based reporter assay. The endocrine hormone PRL binds to the extracellular domain of its cognate receptor PRLR, triggering rapid homodimerization and activating several downstream signaling cascades.
In this example, an engineered cell line was used to determine the ability of anti-PRLR antibodies to block ligand activation of the PRLR receptor. Briefly, HEK293/hPRLR/STAT5-Luc cell lines with stable incorporation of a human PRLR expression cassette and the STAT5-dependent luciferase reporter were generated via sequential rounds of Lipofectamine® 2000-mediated transfection (LifeTechnologies, Carlsbad, Calif.). Cells were selected for at least two weeks in the presence of 500 μg/mL G418 (hPRLR) and 100 μg/mL hygromycin B (STAT5-Luc). The STAT5-Luc assay utilized 2×10^5 HEK293/hPRLR/STAT5-Luc cells seeded in complete growth medium on PDL-coated 96 well plates grown overnight at 37° C., 5% CO2. To generate antibody inhibition curves, cells were incubated (6 hr at 37° C.) with serially diluted anti-human PRLR antibodies (100 nM to 24 pM) in the presence of 5 nM constant PRL before recording signal. PRL dose response curves were generated by the addition of serially diluted PRL (100 nM to 24 pM) to cells and recording signal after a 6 hr (37° C.) incubation in the absence of antibodies. The ability of the antibodies to activate PRLR in the absence of ligand was also assessed.
Luciferase activity was measured with ONE-GLO™ reagent (Promega, Madison, Wis.). Relative light units (RLUs) were measured on a Victor luminometer (Perkin Elmer, Shelton, Conn.). EC50/IC50 values were determined from a four-parameter logistic equation over an 8-point response curve using GraphPad Prism. Percent blocking and percent activation are reported for the highest antibody dose.

| Molecule | IC50 [nM] |
| --- | --- |
| B1 | 0.241 |
| B2 | 0.198 |
| B3 | 0.768 |
| B4 | 1.58 |

Same assay, conditions: 100 nM antibody, 5 nM PRL

| Molecule | Percent Blocking at 100 nM Antibody [%] |
| --- | --- |
| B1 | 100 |
| B2 | 100 |
| B5 | 52 |
| B6 | 54 |
| B3 | 100 |
| B4 | 100 |

What follows are molecules tested against T1, HEK293/mPRLR (assay: FACS cell surface binding). Settings: not given.
Method: (§1) The ability of anti-PRLR antibodies to selectively bind PRLR expressing cell lines was next determined. Human, monkey macaca fascicularis, and mouse PRLR constructs with an HA tag were stably introduced into HEK293 cells via Lipofectamine 2000-mediated transfection methodology. Transfectants (HEK293/hPRLR, HEK293/mfPRLR and HEK293/mPRLR) were selected for at least 2 weeks in complete growth media plus G418.
(§2) Cell surface expression of PRLR on 293/hPRLR cells was assessed via FACS analysis. Briefly, 1×10^5 cells were incubated with 10 μg/ml of Control antibody I, or an isotype control for 30 min on ice in antibody dilution buffer. Following two washes with antibody dilution buffer, cells were incubated with 10 μg/ml of PE conjugated anti-human secondary antibodies for 30 min on ice. Following two additional washes, samples were run on a Hypercyt® cytometer and analyzed in FORECYT™ (IntelliCyt, Albuquerque, N. Mex.). The mean fluorescence intensities (MFI) were expressed as fold change above isotype control levels (background). FACS binding confirmed that Control I selectively bound to 293/hPRLR expressing cells with MFIs that were 30 fold above background (isotype ctrl) levels and less than 2 fold binding on parental cells.
(§3) Next, the anti-PRLR antibodies of the present invention were tested via FACS for selective binding to the engineered overexpressing PRLR HEK293 cell lines, as well as to non-expressing HEK293 cells and a native PRLR expressing cell line (T47D).

| FACS Cell Binding (Fold Above Background) | Molecule |
| --- | --- |
| 1 | B1 |
| 1 | B2 |
| 2 | B5 |
| 1 | B6 |
| 2 | B3 |
| 1 | B4 |

The molecules below were run on HEK293 (non-expressing parental cells) (assay: FACS cell surface binding). Settings: not given.
Method: as §1, §2, §3

| Molecule | FACS Cell Binding (Fold Above Background) |
| --- | --- |
| B1 | 1 |
| B2 | 1 |
| B5 | 1 |
| B6 | 1 |
| B3 | 1 |
| B4 | 1 |

What follows are molecules tested against T2, T47D (native PRLR expressing cell line) (assay: FACS cell surface binding). Settings: not given.
Method: as §1, §2, §3

| FACS Cell Binding (Fold Above Background) | Molecule |
| --- | --- |
| 46 | B1 |
| 37 | B2 |
| 9 | B5 |
| 31 | B6 |
| 41 | B3 |
| 33 | B4 |

Each molecule was assayed against T3, HEK293/hPRLR (assay: FACS cell surface binding). Settings: not given.
Method: as §1, §2, §3

| FACS Cell Binding (Fold Above Background) | Molecule |
| --- | --- |
| 38 | B1 |
| 35 | B2 |
| 6 | B5 |
| 29 | B6 |
| 38 | B3 |
| 29 | B4 |

These molecules were tested on HEK293/mfPRLR (assay: FACS cell surface binding). Settings: not given.
Parameters: species or system macaca fascicularis
Method: as §1, §2, §3

Chain of HEK293/mfPRLR (as listed by the source): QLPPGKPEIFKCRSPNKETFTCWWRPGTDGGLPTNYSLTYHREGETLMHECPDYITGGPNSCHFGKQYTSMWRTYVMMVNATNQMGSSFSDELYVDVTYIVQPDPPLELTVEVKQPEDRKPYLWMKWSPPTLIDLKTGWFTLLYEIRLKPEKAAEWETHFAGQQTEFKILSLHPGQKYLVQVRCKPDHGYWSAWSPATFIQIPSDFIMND

| Molecule | FACS Cell Binding (Fold Above Background) |
| --- | --- |
| B1 | 29 |
| B2 | 30 |
| B5 | 11 |
| B6 | 18 |
| B3 | 28 |
| B4 | 23 |
